Experimental data published in patent US8290713 (LONZA BIOLOGICS, dated 2012).
Non-standard residues stand in square brackets, D forms with d.

B1: ZP-0206 (peptide)
peptide: Ac-[dQ][dY][dP][dV][dL][dI]-NH2
SMILES: CC[C@@H](C)[C@@H](NC(=O)[C@@H](CC(C)C)NC(=O)[C@H](NC(=O)[C@H]1CCCN1C(=O)[C@@H](Cc1ccc(O)cc1)NC(=O)[C@@H](CCC(N)=O)NC(C)=O)C(C)C)C(N)=O
B2: ZP-0215 (peptide)
peptide: H-[dQ][dY][dS][dV][dL][dI]-NH2
SMILES: CC[C@@H](C)[C@@H](NC(=O)[C@@H](CC(C)C)NC(=O)[C@H](NC(=O)[C@@H](CO)NC(=O)[C@@H](Cc1ccc(O)cc1)NC(=O)[C@H](N)CCC(N)=O)C(C)C)C(N)=O
B3: ZP-0214 (peptide)
peptide: Ac-[dD][dR][dY][dS][dV][dL][dI]-NH2
SMILES: CC[C@@H](C)[C@@H](NC(=O)[C@@H](CC(C)C)NC(=O)[C@H](NC(=O)[C@@H](CO)NC(=O)[C@@H](Cc1ccc(O)cc1)NC(=O)[C@@H](CCCNC(=N)N)NC(=O)[C@@H](CC(=O)O)NC(C)=O)C(C)C)C(N)=O
B4: ZP-0160 (peptide)
peptide: Ac-[dH][dH][dV][dL][dV][dA]-NH2
SMILES: CC(=O)N[C@H](Cc1c[nH]cn1)C(=O)N[C@H](Cc1c[nH]cn1)C(=O)N[C@@H](C(=O)N[C@H](CC(C)C)C(=O)N[C@@H](C(=O)N[C@H](C)C(N)=O)C(C)C)C(C)C
B5: ZP-0222 (peptide)
peptide: H-[dQ][dY][dK][dV][dL][dI]-NH2
SMILES: CC[C@@H](C)[C@@H](NC(=O)[C@@H](CC(C)C)NC(=O)[C@H](NC(=O)[C@@H](CCCCN)NC(=O)[C@@H](Cc1ccc(O)cc1)NC(=O)[C@H](N)CCC(N)=O)C(C)C)C(N)=O
B6: ZP-0204 (peptide)
peptide: Ac-[dQ][dY][dS][dV][dP][dI]-NH2
SMILES: CC[C@@H](C)[C@@H](NC(=O)[C@H]1CCCN1C(=O)[C@H](NC(=O)[C@@H](CO)NC(=O)[C@@H](Cc1ccc(O)cc1)NC(=O)[C@@H](CCC(N)=O)NC(C)=O)C(C)C)C(N)=O
B7: ZP-0229 (peptide)
peptide: H-[dQ][dY][dS][dV][dL][dV]-NH2
SMILES: CC(C)C[C@@H](NC(=O)[C@H](NC(=O)[C@@H](CO)NC(=O)[C@@H](Cc1ccc(O)cc1)NC(=O)[C@H](N)CCC(N)=O)C(C)C)C(=O)N[C@@H](C(N)=O)C(C)C
B8: ZP-0213 (peptide)
peptide: Ac-[dE][dK][dY][dS][dV][dL][dI]-NH2
SMILES: CC[C@@H](C)[C@@H](NC(=O)[C@@H](CC(C)C)NC(=O)[C@H](NC(=O)[C@@H](CO)NC(=O)[C@@H](Cc1ccc(O)cc1)NC(=O)[C@@H](CCCCN)NC(=O)[C@@H](CCC(=O)O)NC(C)=O)C(C)C)C(N)=O
B9: ZP-0228 (peptide)
peptide: H-[dP][dY][dS][dV][dL][dI]-NH2
SMILES: CC[C@@H](C)[C@@H](NC(=O)[C@@H](CC(C)C)NC(=O)[C@H](NC(=O)[C@@H](CO)NC(=O)[C@@H](Cc1ccc(O)cc1)NC(=O)[C@H]1CCCN1)C(C)C)C(N)=O
B10: ZP-0221 (peptide)
peptide: H-[dQ][dY][dT][dV][dL][dI]-NH2
SMILES: CC[C@@H](C)[C@@H](NC(=O)[C@@H](CC(C)C)NC(=O)[C@H](NC(=O)[C@H](NC(=O)[C@@H](Cc1ccc(O)cc1)NC(=O)[C@H](N)CCC(N)=O)[C@H](C)O)C(C)C)C(N)=O
B11: ZP-0205 (peptide)
peptide: Ac-[dQ][dY][dS][dP][dL][dI]-NH2
SMILES: CC[C@@H](C)[C@@H](NC(=O)[C@@H](CC(C)C)NC(=O)[C@H]1CCCN1C(=O)[C@@H](CO)NC(=O)[C@@H](Cc1ccc(O)cc1)NC(=O)[C@@H](CCC(N)=O)NC(C)=O)C(N)=O
B12: ZP-0207 (peptide)
peptide: Ac-[dQ][dP][dS][dV][dL][dI]-NH2
SMILES: CC[C@@H](C)[C@@H](NC(=O)[C@@H](CC(C)C)NC(=O)[C@H](NC(=O)[C@@H](CO)NC(=O)[C@H]1CCCN1C(=O)[C@@H](CCC(N)=O)NC(C)=O)C(C)C)C(N)=O
B13: ZP-0212 (peptide)
peptide: Ac-[dR][dY][dS][dV][dL][dI]-NH2
SMILES: CC[C@@H](C)[C@@H](NC(=O)[C@@H](CC(C)C)NC(=O)[C@H](NC(=O)[C@@H](CO)NC(=O)[C@@H](Cc1ccc(O)cc1)NC(=O)[C@@H](CCCNC(=N)N)NC(C)=O)C(C)C)C(N)=O
B14: ZP-0202 (peptide)
peptide: Ac-[dQ][dY][dK][dV][dL][dI]-NH2
SMILES: CC[C@@H](C)[C@@H](NC(=O)[C@@H](CC(C)C)NC(=O)[C@H](NC(=O)[C@@H](CCCCN)NC(=O)[C@@H](Cc1ccc(O)cc1)NC(=O)[C@@H](CCC(N)=O)NC(C)=O)C(C)C)C(N)=O

target: α-synuclein (UniProt P37840 1-140); assay: cell-based or functional assay
Also: test concentration or dose not given here.

Going from B1 to B2, the “% decrease in ThT fluorescence” value rises from 3.3% to 27.6%.

First: B3
Second: B4
The “% decrease in ThT fluorescence” value of the first is higher: 20.4% for the first, 8.8% for the second.

First: B5
Second: B6
The “% decrease in ThT fluorescence” value of the first is higher: 42.3% for the first, 1.4% for the second.

Compared with B7, B8 is higher in “% decrease in ThT fluorescence” value: 17.8% for the first, 25.6% for the second.

Going from B9 to B10, the “% decrease in ThT fluorescence” value falls from 40.8% to 24.7%.

Compared with B11, B12 is lower in “% decrease in ThT fluorescence” value: 16.6% for the first, 5.5% for the second.

Going from B13 to B14, the “% decrease in ThT fluorescence” value rises from 51.1% to 53.5%.

Compared with B1, B2 is higher in “% decrease in rate of aggregation” value: 8.4% for the first, 17.5% for the second.

Going from B3 to B4, the “% decrease in rate of aggregation” value rises from 4.8% to 10.5%.

Compared with B5, B6 is lower in “% decrease in rate of aggregation” value: 34.3% for the first, -5.6% for the second.

Going from B7 to B8, the “% decrease in rate of aggregation” value falls from 24.3% to 12.9%.

Compared with B9, B10 is lower in “% decrease in rate of aggregation” value: 46.2% for the first, 22.8% for the second.

Going from B11 to B12, the “% decrease in rate of aggregation” value rises from -11.9% to 3.6%.

First: B13
Second: B14
The “% decrease in rate of aggregation” value of the first is lower: 44.9% for the first, 54.5% for the second.

First: B1
Second: B2
The “% increase in Lag phase” value of the first is higher: 25.9% for the first, 3.1% for the second.

Compared with B3, B4 is higher in “% increase in Lag phase” value: -12.6% for the first, 36.5% for the second.

Compared with B5, B6 is higher in “% increase in Lag phase” value: 7.7% for the first, 23.6% for the second.

Going from B7 to B8, the “% increase in Lag phase” value falls from 33.5% to 29.4%.

Going from B9 to B10, the “% increase in Lag phase” value falls from 38.2% to -22.4%.

First: B11
Second: B12
The “% increase in Lag phase” value of the first is higher: 30.6% for the first, 29.7% for the second.

First: B13
Second: B14
The “% increase in Lag phase” value of the first is higher: -14.4% for the first, -28.8% for the second.
